Measurements reported in patent publication US20240409639A1 (published 2024).

Key:
human FcRn [1] = assay: BLI (Octet); pH 6.0
human FcRn [2] = assay: BLI (Octet); pH 7.2
FcγRI = assay: BLI (Octet)
ILT4 HIS = assay: BLI (Octet)
PD-1 HIS = assay: BLI (Octet)
FcγRIIIa = assay: BLI (Octet)

- Kd (human FcRn [1]): 2.99 nM
- Kd (human FcRn [2]): 114 nM
- Kd (FcγRI): 1380 nM
- Kd (ILT4 HIS): 0.305 nM
- Kd (PD-1 HIS): 0.063 nM
- Kd (FcγRIIIa): 4910 nM
B1: CDX-585 (bispecific antibody)
heavy: QVQLVQSGAEVVKPGASVKISCKASGYTFTDYVMHWVRQAPGQSLEWMGVISTYHIPAVYNQKFKGKATMTVDTSTSTVYLELSSLRSEDTAVYYCAREVYGESYYFDVWGQGTTVTVSSASTKGPSVFPLAPSSKSTSGGTAALGCLVKDYFPEPVTVSWNSGALTSGVHTFPAVLQSSGLYSLSSVVTVPSSSLGTQTYICNVNHKPSNTKVDKKVEPKSCDKTHTCPPCPAPEAQGGPSVFLFPPKPKDTLYITREPEVTCVVVDVSHEDPEVKFNWYVDGVEVHNAKTKPREEQYNSTYRVVSVLTVLHQDWLNGKEYKCQVSNKALPAPIEKTISKAKGQPREPQVYTLPPSRDELTKNQVSLTCLVKGFYPSDIAVEWESNGQPENNYKTTPPVLDSDGSFFLYSKLTVDKSRWQQGNVFSCSVMHEALHNHYTQKSLSLSPGKGSSGGGGSDIQMTQSPSSLSASVGDRVTITCRASENIYSYLAWYQQKPGKAPKFLVYNADTLAEGVPSRFSGSGSGTDFTLTISSLQPEDFATYYCQHHYGTPFTFGCGTKLEIKGGGGSGGGGSGGGGSGGGGSQVQLVQSGAEVKKPGASVKVSCKASGYSFTGYTMHWVRQAPGQCLEWMGLINPYTGGTDYNQKFQGRVTMTVDRSTSTAYMELSSLRSEDTAVYYCARERPGGSQFIYYYALDYWGQGTTVTVSS
light: DIVMTQTPLSLPVTPGEPASISCRSSQSIVHSAGNTYLEWYLQKPGQSPQLLIYKVSNRFSGVPDRFSGSGSGTDFTLKISRVEAEDVGVYYCFQGSHVPYTFGGGTKVEIKRTVAAPSVFIFPPSDEQLKSGTASVVCLLNNFYPREAKVQWKVDNALQSGNSQESVTEQDSKDSTYSLSSTLTLSKADYEKHKVYACEVTHQGLSSPVTKSFNRGEC
